Measured values as given in the RNAGym collection of RNA variant scans (doi:10.1021/acssynbio.7b00057).

B1: Pistol ribozyme (parent)
chain: GGGUCGUUGUUCCAUAAUCGCGUGGAUAUGGCACGCAAGUUUCUACCGGGCACCGUAAAUGUCCGACUGGAGCCGUUCGGGCGGCUAUAAACAGACCUCAGGCCCGAAGCGUGGCGGCACCUGCCGCCGGUGGUAAAAAAGAUCGGAAGAGCACACGUCU

Variants of: B1
Assay: aptazyme ON/OFF ratio, guanine; higher = stronger switching; co-transcriptional cleavage with and without guanine
In the case of U7C U10C U11A C12U C13G, the “aptazyme ON/OFF ratio” value is reported as 1.32. With U7C U8A G9U U10G U11C C12A C13G the “aptazyme ON/OFF ratio” value was 1.16. For U7A U8G G9C U10G U11C C12G C13G, the “aptazyme ON/OFF ratio” value was 1.3. In the case of U7A U10C U11G C12G C13U, the “aptazyme ON/OFF ratio” value is reported as 1.18. For G9C U10G C12A, the “aptazyme ON/OFF ratio” value was 1.3. For U8C G9U U11C C12A C13U, the “aptazyme ON/OFF ratio” value was 1.18. In the case of U7G U8G G9C U10A U11C C13G, the “aptazyme ON/OFF ratio” value is reported as 1.05. With U7C U8A G9C U10A U11C C12A C13A the “aptazyme ON/OFF ratio” value was 1.19. For U7A U8C G9C U10A, the “aptazyme ON/OFF ratio” value was 1.17. With U7C U8G U10C C12U the “aptazyme ON/OFF ratio” value was 1.38. For U7A U8C G9A U10A U11A C12A C13U, the “aptazyme ON/OFF ratio” value was 1.25. For U7G G9A U10A C13U, the “aptazyme ON/OFF ratio” value was 1.28. In the case of U10G U11A C12U C13G, the “aptazyme ON/OFF ratio” value is reported as 1.2. With U7A U8A G9U U10A U11C C12G C13U the “aptazyme ON/OFF ratio” value was 1.18. In the case of U7C G9A U11A C12G C13A, the “aptazyme ON/OFF ratio” value is reported as 1.15. For U8A C12A C13G, the “aptazyme ON/OFF ratio” value was 1.13. For U8G G9C U10G U11A C12G C13A, the “aptazyme ON/OFF ratio” value was 1.14. For U7G U8C G9A U10G C12U C13A, the “aptazyme ON/OFF ratio” value was 1.12. With U7A G9A U10A C12G the “aptazyme ON/OFF ratio” value was 1.21. In the case of U7A U8G G9U C12A, the “aptazyme ON/OFF ratio” value is reported as 1.53. With U7A U8A G9A U10A U11G the “aptazyme ON/OFF ratio” value was 1.29. With U8G U10A U11C C12A the “aptazyme ON/OFF ratio” value was 1.18. For U7G U8C G9A U10G C13U, the “aptazyme ON/OFF ratio” value was 1.26. For U7A U8G U10A U11C C12U C13A, the “aptazyme ON/OFF ratio” value was 1.14. With U7A G9U U10C C12U C13G the “aptazyme ON/OFF ratio” value was 1.07. For U8G G9U U10A U11C C12U, the “aptazyme ON/OFF ratio” value was 1.05. With U11C C12A the “aptazyme ON/OFF ratio” value was 1.43. With U7A U8C G9A U11C C12U C13A the “aptazyme ON/OFF ratio” value was 1.22. With U7A U8G G9A C12G C13G the “aptazyme ON/OFF ratio” value was 1.81. With U7A U10A U11C C12G the “aptazyme ON/OFF ratio” value was 1.1. In the case of U7A U11G C12U C13U, the “aptazyme ON/OFF ratio” value is reported as 1.13. For U8A G9U U10G U11C C13U, the “aptazyme ON/OFF ratio” value was 1.02. For U8C G9U U10G U11A C13A, the “aptazyme ON/OFF ratio” value was 1.1. For U7G U8A G9U U10A U11A, the “aptazyme ON/OFF ratio” value was 1.46. In the case of G9C U11G C12U, the “aptazyme ON/OFF ratio” value is reported as 1.84. With U7G G9U U11A C12A the “aptazyme ON/OFF ratio” value was 1.56. In the case of U7A U8A G9C U11A C12G C13U, the “aptazyme ON/OFF ratio” value is reported as 1.21. In the case of U10C U11G C13U, the “aptazyme ON/OFF ratio” value is reported as 1.35. With U7C G9U C12A the “aptazyme ON/OFF ratio” value was 1.13. For U7G U8G G9C U10G U11G C12G C13G, the “aptazyme ON/OFF ratio” value was 1.17. For U11G C12G C13G, the “aptazyme ON/OFF ratio” value was 1.27. In the case of U7C C12U, the “aptazyme ON/OFF ratio” value is reported as 1.73. With U7C U8G G9U U10A U11A C13G the “aptazyme ON/OFF ratio” value was 1.09. In the case of U7A U8C G9U U10C U11G C12A C13U, the “aptazyme ON/OFF ratio” value is reported as 1.27. For U7A G9A U11A C13G, the “aptazyme ON/OFF ratio” value was 1.11. For U7A U8G G9A U10A U11C, the “aptazyme ON/OFF ratio” value was 1.03. With U7C U8A G9C U10A U11C C13U the “aptazyme ON/OFF ratio” value was 1.02. For U8C G9U U10A U11G C12U, the “aptazyme ON/OFF ratio” value was 1.43. With U11A C12U the “aptazyme ON/OFF ratio” value was 1.64. In the case of U7A G9U U10C U11A C12U C13G, the “aptazyme ON/OFF ratio” value is reported as 1.2. For U7G U8G G9U U11C C12U C13G, the “aptazyme ON/OFF ratio” value was 1.38. For U7C U11A C12A C13A, the “aptazyme ON/OFF ratio” value was 1.23. For G9U U10C C12G C13U, the “aptazyme ON/OFF ratio” value was 1.18. With U7A U8G U10A C12G C13G the “aptazyme ON/OFF ratio” value was 1.26. With U7G U8A G9U U11A the “aptazyme ON/OFF ratio” value was 1.39. In the case of U7C U8G C12U C13G, the “aptazyme ON/OFF ratio” value is reported as 1.18. In the case of U7A U8A G9U U10C U11C C12A, the “aptazyme ON/OFF ratio” value is reported as 1.04. With U7G U8A G9C U10A U11G C12U C13U the “aptazyme ON/OFF ratio” value was 1.04. In the case of U7G U8G U10G U11G C12G C13A, the “aptazyme ON/OFF ratio” value is reported as 1.42. In the case of U7A U8A G9U U11A C12G C13U, the “aptazyme ON/OFF ratio” value is reported as 1.14. In the case of U7A U8A U10A U11A C12A, the “aptazyme ON/OFF ratio” value is reported as 1.18. For U8C G9C U10G U11C C12A C13U, the “aptazyme ON/OFF ratio” value was 1.13. For U8G C12G C13G, the “aptazyme ON/OFF ratio” value was 1.15. For U8G G9A U10G U11C C12U C13U, the “aptazyme ON/OFF ratio” value was 1.06. For U8A G9C U10C U11A C12G C13U, the “aptazyme ON/OFF ratio” value was 1.16. With U7G U8G G9A U10A U11G C12A C13U the “aptazyme ON/OFF ratio” value was 1.1. In the case of U7G U8A G9U, the “aptazyme ON/OFF ratio” value is reported as 2.15. For G9C U11A C12G C13A, the “aptazyme ON/OFF ratio” value was 1.2. In the case of U7C U8C G9C U10G U11A C12U, the “aptazyme ON/OFF ratio” value is reported as 1.15. In the case of U7A U8G C13G, the “aptazyme ON/OFF ratio” value is reported as 1.1. For U7G U8C G9U U10A C12U, the “aptazyme ON/OFF ratio” value was 2.85. For G9C U11C C12A C13A, the “aptazyme ON/OFF ratio” value was 1.12. For U7C G9U U10C U11C, the “aptazyme ON/OFF ratio” value was 1.05. With U8A G9A U11A C12G C13G the “aptazyme ON/OFF ratio” value was 1.2. For U7C U8G G9U U10G C12A C13A, the “aptazyme ON/OFF ratio” value was 1.12. With U7A G9C U10C U11G C13G the “aptazyme ON/OFF ratio” value was 1.08. With U7A U8G G9A U10C U11A C13A the “aptazyme ON/OFF ratio” value was 1.16. In the case of U7G G9C U10G U11G C12U C13U, the “aptazyme ON/OFF ratio” value is reported as 1.24. For U7C U8A G9U U10C C12G, the “aptazyme ON/OFF ratio” value was 1.22. In the case of U8G G9A U10A U11A C12A C13G, the “aptazyme ON/OFF ratio” value is reported as 1.18. For U8G G9A U10A U11A C12U, the “aptazyme ON/OFF ratio” value was 1.35. With U7A G9A U10A U11A C12G C13A the “aptazyme ON/OFF ratio” value was 1.09. For U11C, the “aptazyme ON/OFF ratio” value was 1.53. For U7C U8C G9C U11G C12U C13U, the “aptazyme ON/OFF ratio” value was 1.1.
